Test results published in the supplement of paper PMC9170038.

What follows are sequences tested on MS2 coat protein (assay: apparent KD of MS2 coat protein; higher = weaker reporter binding). Settings: Eterna round: R107; input ligand: none.
Method: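 RNA-MaP round R107: designed RNA switches with theophylline, tryptophan, arginine or FMN aptamers are transcribed on-chip within common flanks. They are titrated with SNAP-549-labelled MS2 coat protein in RNA-MaP buffer (100 mM Tris pH 7.5, 80 mM KCl, 4 mM MgCl2), without ligand or with the indicated ligand. Median apparent KD per design.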

| Sequence | apparent KD of MS2 coat protein |
| --- | --- |
| AUAUAUGACAGAAGGAGCGCCAUGAACACACAUGAGGAUCACCCAUGUUUUUUUUGUGUUUGGCAGGUAGGUCGCUGACAUGAAA [Same State Arginine B 3] | 8.71 nM |
| ACAUGAGGAUCACCCAUGUAAGAUUCAGAAGGAGCGGGAAAUAACCCAGGUAGGUCGCUGAAGUUUGGUUUAUUGUGUUCGUGAA [#07 Exclusion - Arginine A] | 10.4 nM |

Same assay, conditions: Eterna round: R107; input ligand: theophylline 20 uM

| Sequence | apparent KD of MS2 coat protein |
| --- | --- |
| ACAUGAGGAUCACCCAUGUAACGGCAUAAUCGAGGACCGGUACGGCCGCCACUCGGAAUCAGUGACAGGCAUAUUUAUUAUAAGA [Eclusion - Tryptophan A / A] | 15.6 nM |
| CUACAUUUGUAGAAACCGGUCAACAAUAAUCGAGGACCGGUACGGCCGCCACUCGUAUAAUUUAAUACAUGAGGAUCACCCAUGU [Tryptophan A 1] | 19.4 nM |
| UCUACAUGAGGAUCACCCAUGUGCCAUGAUACCAGACAUGAAAAUGUCCCUUGGCAGCGUGGGUAGCGCAUCCGAAAGGAUGCGC [#08 SameState-TheophyllineA] | 240 nM |
| GCAUCCUAGUCGGCCGCCACUGCAUGUAGGCAGUGCUGCUACAAACAUGAGGAUCACCCAUGUAGCAGGACCGGGACUAGGAUGC [(Trp1)-(MT2)''-(T1)'-(MT2)'-(Ms2)-(Trp2)_Design2] | 18.5 nM |
| CCUCGACAUGAGGAUCACCCAUGUAGAGAUACCAGCCUGUGAGAUGGCCCUUGGCAGCUCAUAUAGGGUACGGGAGUCGUUUCGA [Eslaqu] | 48.4 nM |
| UUCUACAUGAGGAUCACCCAUGUAAACGAUACCAGACGAGUAUUAGUCCCUUGGCAGCGUAGAGUGUCGUUUAUAGUAGGAUACC [TheoA-ms2@5] | 26.1 nM |
| CCUAUGCAGUCGGCCGCCACUGAACAUGAGGAUCACCCAUGUAACGGAAACGAAGAUCCUGAAAUCAGGACCGGGACUGUAUAGG [Ex Tryptophan B 3] | 221 nM |
| AUAAGUAAUGUUACGUGUUUUAUUACAGAUACCAGACUAUACGUUGUCCCUUGGCAGCUGAAUUACAUGAGGAUCACCCAUGUUG [JR_ExcTheophyA_Sub004] | 18.4 nM |
| CCAUGCAGGUCGGCCGCCACUACACACAUGAGGAUCACCCAUGUAGUUACUGGGUGAAGUGGCAGUAGGACCGGGACCUGCAUAC [Brourdmod12] | 459 nM |
| GGUUACUCUACGGCCGCCACUGUUAAAUAAUAAACCUGUACAUAAACAUGAGGAUCACCCAUGUACAGGACCGGGUAGUGUAACC [Tryptophan B 8] | 41 nM |
| ACAUGAGGAUCACCCAUGUCUGCCACUGAUACCAGCGGAAGCCCACGCCCUUGGCAGCAGAACAUGAGGAUCACCCAUGUAGGCU [Same State Theophylline A GF28] | 186 nM |
| AGUCUUGUGGGAAGGAGCGCAUACUUCACAUGAGGAUCACCCAUGUCAAGACGUGAGUCAGUGCAGGUAGGUCGCCUAACUAAGA [Same State - Arginine B (Freestyle 15)] | 37.4 nM |
| CUAUUCUGUACGGCCGCCACUUCAACGUGUAAGCUGGUGGUCCACUACAUGAGGAUCACCCAUGUAAGGACCGGGUACGGCGCGG [theeternabot_exclusion_MS2_Trp_B_29] | 16.6 nM |
| UCAUUUGAGUGAGAUGUAAGGUAUCAUGAUACCAGUAGAUAAUUAUACCCUUGGCAGCAUGACAUGAGGAUCACCCAUGUACAUG [Ad] | 11.1 nM |
| AAUAAUCUAGGUGAUACCAGCUCAACAUGAGGAUCACCCAUGUACUCAUGUAGAGUUGAGAGCCCUUGGCAGCACCUAGAUAAUA [(Theo1)-(Ms2)-(M)'-(T)'-(Theo2)] | 665 nM |
| ACACACAUGAGGAUCACCCAUGUAAUAGAUACCAGUGACGCGGUGCACCCUUGGCAGCUGCUGCUGAGUGAUGGUUCCCUCGGAA [Exclusion Theophylline A GF7] | 25.9 nM |
| GCCUAGCAGCGAAGGAGCGACAUCGGCGCAUGCGAGGACAUGAGGAUCACCCAUGUACCAUGUCAGGUAGGUCGCGCUGCUAGGC [EAB NP+V+V2 #6] | 36.4 nM |
| UGAGUUAGACAAAAGUCUAGCUCUGGUGAAGGAGCGUCCGAAAGGACAGGUAGGUCGCACCACAUGAGCAUCAGCCAUGUUCCUU [ArgAS 23 #OpenEnded #AlternativeMS2] | 26.9 nM |
| UUCUGGUCCCGUGAUACCAGAGACAUGAGGAUCACCCAUGUACAUGAGGAUCACCCAUGUUUCCCUUGGCAGCACUGUAGGGAGC [Exclusion Theophylline B GF 16] | 226 nM |
| ACGUCACGUUUACUCGUGGUUUCGAUCGAUACCAGUAGCGAGAGUUACCCUUGGCAGCGACAUGAGGAUCACCCAUGUACGAAGA [XTheo A #25] | 14.5 nM |
| GCUGCCGUCGGUGAAAACUCCCAUGCAGAUACCAGCGCAUUCCGCCGCCCUUGGCAGCUGCAUACAUGAGGAUCACCCAUGUGUU [theeternabot_exclusion_MS2_Theo_A_48] | 161 nM |
| UAUCCACAUGAGGAUCACCCAUGUGAGGAAGGAGCGGUGAAUGCACCAGGUAGGUCGCCUUGCUGAGGACAGCCGGUGGAUUCGU [Exclusion - Arginine A (Freestyle 25)] | 16.2 nM |
| AUAUAUGACAGAAGGAGCGCCAUGAACACACAUGAGGAUCACCCAUGUUUUUUUUGUGUUUGGCAGGUAGGUCGCUGACAUGAAA [Same State Arginine B 3] | 17.7 nM |
| ACAUGAGGAUCACCCAUGUGAAGCAGGGUACGAGGACCGGUACGGCCGCCACUCGAACAUUAUAACGAGUGAAUGGCAACGAUGU [B15Jan] | 18.5 nM |
| AUAUGAUCAUAGGAUACCAGAAAUGGUAUUCCUUUAUUUCUUACAUGAGGAUCACCCAUGUUCCCUUGGCAGCUUAUGAUCAUAU [ETHB #4] | 169 nM |
| GGUGGGACUUGUGAUACCAGCCCAAUUCGAAUCGAAUUGCACAUGAGGAUCACCCAUGUCGGCCCUUGGCAGCAUGAGUAUUUAU [Ricerixe] | 149 nM |
| CCUAUGCAGUCGGCCGCCACUGAGUCCUCAAUAAUAAAUUAAUAAACAUGAGGAUCACCCAUGUACAGGACCGGGACUGUAUAGG [Ex Tryptophan B 12] | 324 nM |
| ACAUGAGGAUCACCCAUGUAAGAUUCAGAAGGAGCGGGAAAUAACCCAGGUAGGUCGCUGAAGUUUGGUUUAUUGUGUUCGUGAA [#07 Exclusion - Arginine A] | 13.3 nM |

Same assay, conditions: Eterna round: R107; input ligand: theophylline 2 mM

| Sequence | apparent KD of MS2 coat protein |
| --- | --- |
| ACAUGAGGAUCACCCAUGUAACGGCAUAAUCGAGGACCGGUACGGCCGCCACUCGGAAUCAGUGACAGGCAUAUUUAUUAUAAGA [Eclusion - Tryptophan A / A] | 11.5 nM |
| CUACAUUUGUAGAAACCGGUCAACAAUAAUCGAGGACCGGUACGGCCGCCACUCGUAUAAUUUAAUACAUGAGGAUCACCCAUGU [Tryptophan A 1] | 19.4 nM |
| UCUACAUGAGGAUCACCCAUGUGCCAUGAUACCAGACAUGAAAAUGUCCCUUGGCAGCGUGGGUAGCGCAUCCGAAAGGAUGCGC [#08 SameState-TheophyllineA] | 1310 nM |
| GCAUCCUAGUCGGCCGCCACUGCAUGUAGGCAGUGCUGCUACAAACAUGAGGAUCACCCAUGUAGCAGGACCGGGACUAGGAUGC [(Trp1)-(MT2)''-(T1)'-(MT2)'-(Ms2)-(Trp2)_Design2] | 15.6 nM |
| CCUCGACAUGAGGAUCACCCAUGUAGAGAUACCAGCCUGUGAGAUGGCCCUUGGCAGCUCAUAUAGGGUACGGGAGUCGUUUCGA [Eslaqu] | 263 nM |
| CCUAUGCAGUCGGCCGCCACUGAACAUGAGGAUCACCCAUGUAACGGAAACGAAGAUCCUGAAAUCAGGACCGGGACUGUAUAGG [Ex Tryptophan B 3] | 185 nM |
| CCAUGCAGGUCGGCCGCCACUACACACAUGAGGAUCACCCAUGUAGUUACUGGGUGAAGUGGCAGUAGGACCGGGACCUGCAUAC [Brourdmod12] | 540 nM |
| GGUUACUCUACGGCCGCCACUGUUAAAUAAUAAACCUGUACAUAAACAUGAGGAUCACCCAUGUACAGGACCGGGUAGUGUAACC [Tryptophan B 8] | 35 nM |
